These results are taken from patent publication US20240209113A1 (BEIGENE SWITZERLAND, published 2024).

For test [1], the target named is T1, Human CD137 ectodomain containing four CRDs (crystallization construct) (human, UniProt Q07011 24-162).
T1 construct: Expressed with a C-terminal TEV site and Fc tag; the Fc tag was cut off
T1 chain: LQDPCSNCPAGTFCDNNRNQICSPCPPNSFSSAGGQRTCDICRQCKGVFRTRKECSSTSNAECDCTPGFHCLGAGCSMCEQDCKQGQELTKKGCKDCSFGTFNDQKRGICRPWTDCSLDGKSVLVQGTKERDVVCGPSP
Put plainly: complex purified by gel filtration and crystallized.
Protocol: The complex was then further purified by gel filtration in buffer (20 mM Tris pH 8.0, 100 mM NaCl) using a HiLoad 16/600 Superdex™ 75 pg column (GE Healthcare Life Sciences). […] Crystals cryoprotected with stepwise 5% D-(+)-Sucrose to a final 20% concentration were flash frozen in liquid nitrogen. […] Crystal was cryoprotected with 7% glycerol and flash frozen in liquid nitrogen. The X-ray diffraction data was collected at beamline BL45XU at Spring-8 synchrotron radiation facility (Hyogo, Japan).

Another test has as its target T2, human CD137 ECD-mIgG2a (human).
T2 construct: Human CD137 AA 24-183 fused to mouse IgG2a Fc; also called huCD137
Put plainly: competition ELISA on coated human CD137 ECD-mIgG2a: BGA-5623 (IgG4 Fc) detected with anti-human IgG-HRP in the presence of serially diluted human CD137 ligand ECD-mIgG2a.

A further test has as its target T3, human OX40 ECD-His (human, UniProt P43489 29-216).
T3 construct: also called human OX40-his; huOX40
T3 sequence: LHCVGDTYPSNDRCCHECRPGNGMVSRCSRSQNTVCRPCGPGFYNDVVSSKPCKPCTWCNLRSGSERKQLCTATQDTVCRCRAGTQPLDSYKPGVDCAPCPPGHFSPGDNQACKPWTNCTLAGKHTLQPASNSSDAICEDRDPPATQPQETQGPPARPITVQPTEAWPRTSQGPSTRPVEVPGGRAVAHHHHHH
The test can be described thus: ELISA, antigens coated at 10 ug/ml; antibody concentration not given. (In general: An ELISA detects its analyte on a solid surface through an enzyme-linked reagent.)

Another test addresses T4, human CD40 ECD-mIgG2a (human).
T4 construct: also called huCD40; TNFRSF5(CD40)
The description is as above.

A further test has as its target T5, TNFRSF1A(CD120a) (UniProt P19438 30-211, limits assumed).
T5 construct: Bought protein
T5 sequence (looked up): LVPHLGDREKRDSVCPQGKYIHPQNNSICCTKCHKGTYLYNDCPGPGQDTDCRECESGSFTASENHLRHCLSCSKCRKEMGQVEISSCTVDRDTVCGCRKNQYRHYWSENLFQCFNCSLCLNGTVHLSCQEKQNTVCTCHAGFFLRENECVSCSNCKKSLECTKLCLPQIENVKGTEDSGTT
The description is as above.

In a further test the target is T6, TNFRSF1B(CD120b) (UniProt P20333 23-257).
T6 construct: Bought protein
T6 sequence (looked up): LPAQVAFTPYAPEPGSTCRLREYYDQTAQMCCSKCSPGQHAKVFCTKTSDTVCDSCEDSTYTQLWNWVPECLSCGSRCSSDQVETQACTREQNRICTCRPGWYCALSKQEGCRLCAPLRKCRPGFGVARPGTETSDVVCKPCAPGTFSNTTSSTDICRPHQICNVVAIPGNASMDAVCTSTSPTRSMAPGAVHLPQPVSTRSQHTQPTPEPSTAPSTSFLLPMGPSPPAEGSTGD
The description is as above.

T4 sequence (chain, as listed by the source limits assumed): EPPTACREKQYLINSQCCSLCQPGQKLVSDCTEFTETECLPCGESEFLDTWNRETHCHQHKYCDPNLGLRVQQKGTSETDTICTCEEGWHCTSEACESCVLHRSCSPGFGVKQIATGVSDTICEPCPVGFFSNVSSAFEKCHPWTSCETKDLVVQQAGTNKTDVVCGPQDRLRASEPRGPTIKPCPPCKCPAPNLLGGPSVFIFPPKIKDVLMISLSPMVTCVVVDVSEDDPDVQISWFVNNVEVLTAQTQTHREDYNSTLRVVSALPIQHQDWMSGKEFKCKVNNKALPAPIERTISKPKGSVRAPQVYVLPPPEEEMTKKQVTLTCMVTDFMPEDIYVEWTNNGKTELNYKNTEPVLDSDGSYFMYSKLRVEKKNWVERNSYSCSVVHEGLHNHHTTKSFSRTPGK

B1: VH (BGA-5623) (VHH)
VHH: EVQLLESGGGLVQPGGSLRLSCAASGFTVSAEDVGWVRQAPGKGLEWVSAILDKGGSTYYAESVKGRFTISRDNAKNTLYLQMSSLRAEDTAVYYCARIVYHAGGGVTFDTRGQGTQVTVSS
notes: Human VH single domain made in E. coli with an N-terminal HIS-MBP tag removed by TEV protease
As for B1, the binding result in test [1] is reported as “binds”.

B2: human CD137 ligand-mIgG2a (Fc fusion)
chain: EPRGPTIKPCPPCKCPAPNLLGGPSVFIFPPKIKDVLMISLSPIVTCVVVDVSEDDPDVQISWFVNNVEVHTAQTQTHREDYNSTLRVVSALPIQHQDWMSGKEFKCKVNNKDLPAPIERTISKPKGSVRAPQVYVLPPPEEEMTKKQVTLTCMVTDFMPEDIYVEWTNNGKTELNYKNTEPVLDSDGSYFMYSKLRVEKKNWVERNSYSCSVVHEGLHNHHTTKSFSRTPGKGGGGSREGPELSPDDPAGLLDLRQGMFAQLVAQNVLLIDGPLSWYSDPGLAGVSLTGGLSYKEDTKELVVAKAGVYYVFFQLELRRVVAGEGSGSVSLALHLQPLRSAAGAAALALTVDLPPASSEARNSAFGFQGRLLHLSAGQRLGVHLHTEARARHAWQLTQGATVLGLFRVTPEIPAGLPSPRSE
notes: also called human CD137 ligand ECD-mIgG2a; huCD137 ligand
As for B2, the “IC50 (read off the curve)” value in the test with human CD137 ECD-mIgG2a was about 2 µg/mL.

B3: Urelumab analog (antibody, human IgG4 S228P, kappa, V domains shown)
VH: QVQLQQWGAGLLKPSETLSLTCAVYGGSFSGYYWSWIRQSPEKGLEWIGEINHGGYVTYNPSLESRVTISVDTSKNQFSLKLSSVTAADTAVYYCARDYGPGNYDWYFDLWGRGTLVTVSS
VL: EIVLTQSPATLSLSPGERATLSCRASQSVSSYLAWYQQKPGQAPRLLIYDASNRATGIPARFSGSGSGTDFTLTISSLEPEDFAVYYCQQRSNWPPALTFGGGTKVEIKR
notes: also called Urelumab analog antibody
As for B3, the binding result with human OX40 ECD-His, in the test with human CD40 ECD-mIgG2a, with TNFRSF1A(CD120a) and in the test with TNFRSF1B(CD120b) was “no binding” in each case.
